Reference: a protein production outcome set (Wang et al. 2014)

Assay: label from the status in PepcDB records
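Also: failed if final PepcDB status was selected cloned or expressed and not failed if soluble or beyond.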

MFVLNIFSTTHKQRGLNRASCPPLGNYSNNHTLAYRVKCISEETRDSNSLVSSLNRKLWKTSVAGSDIPMIYSPFLEDMQNTLFASFETVEDYPLSEFLASAQSSKKPARIESWCYQCPKFRKIRLTYLDAGVAAQVFNAVWYPISSLELPILGVDFLSFGGKNVLCVMDFQPLMNDQYYLDKYIQPLHPIRERYADLAGRMSSRFYDENRFFSKELLFGRFDSTKPIYERLFPAFREYLDLYITLAKQTVEDDKSRSIIWQLQCEYDRYSAEKDPAMSLFRSYFGSTWAHRFVYEFLFENSRYESSLDNKT
protein production: not failed

MFVNQHGYSFGLSCALDGLSKREKDAQRQNKLLELGLLTNRNSTFFEEATQTLARNLGLPICLVGLMVEDEINIVSAVGIYRLGVGNPNLVSRQISRNDAYCTLVVDSAMPLMITDALAEPFFAEGELYQRYGIRSYLGTPLLTRDGVCLGTLAALDFSPHDFREPDVALMNMTARWCMGEIEH
protein production: failed

MFVSLLPLLLLTLVVGTLAGGEAFAERIVTAAGDVLTPAASTLLEDALTSGAGRGGATVLGVGVTLWSALKVFRGLDTAFSRVYGTDGPDSIVREIVDGLAALGGIGIALVGLGIIGAFGTVLGVQVALGGLALVPVLAVAFLPLYYLFPDQEMTLREAVPGAVFAGGGWTLLGTGFNVYAAQADSYQVYGVIGGVLLLVTWFYFAGQVLLVGAAVNAALADRQLQQVSRRRSGKAMSEDADETDTPPPAGTGPTGRDTDTLTDEELQELREEFESFREDIEGRTLHRDEVRSDLKQYVRRRMRRGHARQWGPYIVLLYGTIMTLGAFYYLKGLWAVLAMLVIWLSVLGLYAIMIAVGVTLTATGLPGRLVDRVRDWRQ
protein production: failed

MFVWHEYENAAEAAQSLADAVADALQGALDEKGGAVLAVSGGRSPIAFFNALSQKDLDWKNVGITLADERIVPTNHADSNTGLVREYLLKNKAAAAVWIPMVEDGKTETELHPDAVVDYALKHYKQPDVLILGMGNDGHTASIFPKAPQFQTAIDGSAGVALVHTTPVTAPHERISMTLDAIAHTGHVFLAIQGEEKKAVFDQAAQGENREYPISLVLNHQGVNCHVFYAE
protein production: not failed

MFYEKIQTPAYILEEDKLRKNCELLASVGEKSGAKVLLALKGFAFSGAMKIVGEYLKGCTCSGLWEAKFAKEYMDKEIHTYSPAFKEDEIGEIASLSHHIVFNSLAQFHKFQAKTQKNSLGLRCNVEFSLAPKELYNPCGRYSRLGIRAKDFENVDLSTIEGLHFHALCEESAGALEAVLKVFEEKFGKWIGQMKWVNFGGGHHITKKGYDVEKLIALCKNFSDKYGVQVYLEPGEAVGWQTGNLVASVVDIIENEKQIAILDTSSEAHMPDTIIMPYTSEVLNARILATRENEKISDLKESEFSYLLTGNTCLAGDVMGEYAFDKKLKIGDKIVFLDQIHYTIVKNTTFNGIRLPNLMLLNAKNELQMIREFSYKDYSLRN
protein production: failed

MFYITSKKVPFVTYSKNVFIPVTNICRNQCGYCGFRREPGQPGARLMKPEEVISVLENGVRAGCTEALFTFGERAEEVPGYGEMLEEIGYSSTLEYLVFLCETAIDIGILPHTNAGIMTRSELEALKPLNASMGLMLESTAVLAAHKDCPGKIPERRLETIREAGKLKIPYTTGLLIGIGESRDDRIESLEAIAALHREYGHIQEVIIQNFAPKPGTEMENFPEPAVEEMMDSVELAARILPGDVAVQVAPNLIDPKSLIAKGVTDLGGISPLTIDWINPEAEWPDVKNLQKKLGDIPLKERLPVYPPYVKKGWYSERIGSLIKRLEHHHHHH
protein production: failed

MGAKGKFWILTMVVAISGLSQGVLLPLIAIILEEKGVSAGINGFHATGIYLGVLLVSPFIEAPLHKYGYKPIILVGGGLVAIAIFAFPIWFNLYFWFILRLLIGIGDHMLHFSSQTWIGAMSDPSKRGRNMAIYGLFFSVGFAIGPQLVNLAKVNANLPFFLSGILVLIAWSLVWFIRNDFVGEKAVIRKISFWGSIKRFSGVFKMAWVAMIPPFLYGILETGLNATFPVVGLRDGLDTMMIAMIISSFSVGTIIFQVPIGIISDKFGRDKMLPLLTGAGAVVFVLTAFVKIPIFFVIFFFILGILLGSLYSLGLSYMTDLTPLELLPAGNILVGMFFSLGSIIGPSATGMMIGIFGNQIFYFVVAGILLLGCLLLALGGRKEAH
protein production: not failed

MGAKGKFWILTMVVAISGLSQGVLLPLIAIILEERGISAGINGFHATGIYLGVLLISPFIEAPLHKYGYKPIILVGGGLVAVSILAFPIWFNLYFWFILRLLIGVGDHMLHFSSQTWIGAMSDPSKRGRNMAIYGLFFSLGFAIGPQLVNLAEINANLPFFLSGILVLIAWGLVWFVRNDFVGEKAVIRKISFWGSLKRFSDVFKLAWVAMIPPFLYGILETGLNATFPVVGLRDGLDTMMIAMVISSFSVGTIIFQVPIGIVSDKFGRGKVLPLLTGAGAVVFVLTAFVKIPVLYVVFFFVLGILLGSLYSLGLSYMTDLTPLELLPAGNILVGMCFSLGSIIGPSATGMMIGIFGNQIFYFVVAGILVLGCLLLIFGARKDALEKKMKN
protein production: failed

MGAMAEIQFIRGINEEVVPDVRLTRARDGSSGQAMFYFDNPKIVQEGNLEVTGMYMVDEEGEIVTRDVNAKFINGQPVAIEATYTMRSPQEWDRFIRFMDRYAASHGLGFQKSENS
protein production: failed

MGCAGSTQSQADGSVKKIRKPKPWKHTQPITKAELMKLREEFWDTAPHYGGRKEIWDALRAAAEADISLAQAIVDSAGVIVQNTDLTVCYDERGAKYELPKYVLSEPTNLEEEN
protein production: failed

MGCFASRPNDTGGNRRKPTSIGDVSVYVPGLRIPKPVEFSQSLGDQLPKTLVERLTALRTRIVVMANQEGPTITRTRRKTQHGGSTLADLHHALEDYIPVLLGLTKDGSHLQFKVQFNWVNQEDEEEETAMSNVWYEILSVLHLMAMLQMSQANLLLLPRGSSDGYHPKISEENRRASIDIFLKAAGYLDCAVKHVLPHFSTEQRRSLPIDLAEGALRALCLQALGQGVDIQLGMAIDSAKATLAVKRRLSCEMVKYWQQAQDNLMNLPLANGWGEKHMLFVKWKYVEAKAAAYYYHGLILDEGNTEKSHGMAVAALQAADECLKESKKASEAFNTSSPTSRTPSLFGTMKYLSEKIPKETSSKVRINRDLYSYEKIMETAPTLPDFALALKPDEYQLPSVDASWSEASLRTKNTSNHI
protein production: not failed

MGCGLRKLEDPDESSPGKIFSTLKRPQVETKTEFAYEYALLDFTLQASTNPDVIKINSVLDIVAKVEDYYLKGYVVGAIHPVIQPVGQRKHLPASHLYRAVLSRLKLSPKHSAAGGQRRARLVMEECPLTCEAQANDAAKELMDKINAAAKRGMKFVGLVSQCYLPSMHCNGASHDGVAESGLHVRQDSQDNCKGWNEGALGGHLSESGVEEEPQHESGQHQTERNSSPSYANPKRGEAPDGKLYMVFNAFEEDAASWAYQEGVLSMKVTRKGAVISALDANWLELTTFYYKQGFSLIDSFVCWETPKVAKLEAFQLSVSDKLPKGKQKYSFQSLSGIPASGLA
protein production: not failed

MGCICFKSWRRSSSSPSITSTVIDDLENVREYDADDDGGHYPLIFREFSLEQLRIATDGFSAGNIVSEHNDSVPNIVYKGKLGDGRRIAVKRFQRLSWPDPFEFINEAQAVGRLRSEHMANLIGCCCDDNERLLVAEYMPNGTLAKHLFHWEKRPMKWEMRLKVALHTARALEYCNDKGIDLYHDLNPYRIMFDKTGIPKLSCFGLMKNSHEGKIYSTNLAFAPPEYLRLGTVIAESVTFSFGTLLLDLMSGRHIPPNHALDLFRGKNYLVLMDSALDGQFSDEDRTELIHVASRCFKTEPEERPSIKFLKATLSRLQKRAKLCPINVKRPMSPPSKNLPEKTKPATESLKLTPFGDACSRADLSSIHELLEKLGYEEDNGVGNEFSFQMWTGEMQENMDYKKHGDAAFLAKDFDTAIEFYTEFMTGAPTVSPTVLARRCLCYLMTEMFSEALSDAMQAQVASPEWPIPLYLQAACLFKLEMEAEAKEALRHGSALEAY
protein production: failed

MGCLYSKGNVHFSIDDEIYDIKETRKQQQKEKEKEEEEKKLRPSSTPKVEHTWPSKLELSLQHLSQKTQNARKIQAWWRGTLVRRSLLRAALSAWIIQSWWRKILAKRQEKNRLIILHLMAQETRACVLIQSWVRMLKIRQNYCRLCYATRVIQASWRWYNCRTRGFFQGSYELVGNKLRLRLDIFLGSQVCRISDCISLPIKN
protein production: failed

MGCRATQRESVGFADKIRYTERRFISVFGVPLLIQLICQAPQRAQELEQIAARWQLQASDDSPFALVLSEERLELRKLDEPKLGAIYVDWVEGAVAHRRKFGGGKGQSIAKAAGLNKGVTPVVLDATAGLGRDAFVLASLGCRVQMVERHPVVAALLEDGLQRAKQDDEIGAWVSERISLLHASSHDALQQLASDPNFTSPDVVYLDPMYPHPENKKKTALVKKEMRVFQSLVGADNDADALLEPALQLAQKRVVVKRPDYAPWLGNRKPSMAMETKKNRFDVYVIAAMSGE
protein production: failed

MGDEDLIELKFRLADGTDIGPSKYSQFMTVASLKEKIIAQWPKDKENAPKMINEVKLINGGKILENNKTLSEARSLITIGELPGIVTTMHVVLRPPLFEKKKEKLQNDPPRKSHCVCCIL
protein production: failed

MGDIEGINIQSMASEIKKLRHKIETLEQQNSDLEIALTTAVEHGDAIESELFSTNDRLRGEVRERVIAERRLSKVLTVVSQQKDDLEVLVQTITEHSDEIDTQWLSRYSEVEALARLDPLTSIANRRMLDSALEQEWTRSLRSGSPLSVAMCDLDLFKAYNDRYGHNRGDQVLIAFAEILRGCSRRPPDLPARVGGEEFLILFPETDLAGARQVAEAIRLALWTLAIPHADSPHGRVTVSIGLACVFPRPEGDPADLIAQADFRLYEAKAHNRNTVRA
protein production: failed

MGDKEESKKFSANLNGTEIAITYVYKGDKVLKQSSETKIQFASIGATTKEDAAKTLEPLSAKYKNIAGVEEKLTYTDTYAQENVTIDMEKVDFKALQGISGINVSAEDAKKGITMAQMELVMKAAGFKEVKLEHHHHHH
protein production: not failed

MGETTVGHVAGEVVRALYGAGYMESTIGQYRKSIRALERYAGGPDAVYTRGLGAGFAASTFSERTGGFSRQRWFDYGRLARLCDSYLRSGSVDLGKWRRSRLAEPVVPGLAVVMERWEAYLAGSGLASATVGHYRRMAGLFLTWLESHGVVSLDGSDGSHVLGFLAGLRSRWSESSMRHAASDLRPLFRWLGRDDLADAIGLAGIRRTHAIAGTLPDDEHRRLLEACASRSVPSRDAAITLLSLTCGLRACDVIGLRIADVDWDSMSIGLVQRKTGNPLTVPMTGPLAARLASWLLDERPATDDDRVFVRYKAPHVALRGHSSVYEAISRVMRHAGLGRRGGSRLLRRNAATRMLEAATPLPTISAVLGHADPDSTRVYMATHRGGMLACVLPVPEGGSS
protein production: failed

MGEYYHATVNGVVEYGAFVDLSEHVSGLIHESTYSGDPDLAVDDDVIVHLSAVRDNGDLSFEFVDPEEYRTEQRSHAYERTTADAVGLEHHHHHH
protein production: not failed

MGFADFFKNFKINKLRTAPSKEEQPSHWVKCPKCYALMYHKEVFSKYSVCLKCHYHFRMKAAERIEFLCDVGSFEEFDKHLRPNDPLNFVDKESYKQRIKKYEKRTNRPSSVISGEAKINRMPLQIVVFDFSFMGGSLGSVEGEKIVRAINRAVAKREALLIVSASGGARMQESTYSLMQMAKTSAALNRLSEAKLPFISLLSDPTYGGVSASFAFLGDLIIAEPGAMIGFAGPRVIKQTIGADLPEGFQTAEFLLEHGLIDMIVHRKDLKKTLSDLIAMMTHKTSKIF
protein production: failed

MGFIMEFAENLVLRLMENPEERDRKAREHIYEMHERCKKIKEMWALPIRPYGFWTFERHNAQLRWDPQISQVAGRRDPYDDLLEDNYTPPSSSSSSSD
protein production: failed

MGFLDALMGNASEVDLGKLAAELSPILGDNEELQLAYKMVRDLFVFTSKRLILIDKQGVTGKKVSYHSIPYKAIVHFQVETAGTFDMDAELKLWISGQHEPLVKELKRGTDVVGIQKTIARYALG
protein production: not failed

MGFLEAYKSFWRNYVNFSGRAPRSAYWYVVLWNVIIFVILYALAFIFGISAIMEAAMGGTGMAGGGGAIVLVIILWLYLLAALLPTISLMVRRLHDSGKSGFFVLLSLIPFAGGIIMLIFMCLESDGPNQYGDGDIDSKFDF
protein production: failed
